Results as given in patent US20260042834A1 (HBM ALPHA THERAPEUTICS, published 2026).
Like-named read-outs stand apart in the source and are kept apart here.

Key:
CRH (CT-Biotin) [1] = biological target: T1, CRH (CT-Biotin) (human and mouse, biotin on the added C-terminal K (-K-Biotin)); experiment: ELISA on streptavidin-captured CRH (CT biotin), OD450
T1 construct: also called Peptide 4 (CRH-Biotin); C-terminally biotinylated corticotropin-releasing hormone
T1 peptide: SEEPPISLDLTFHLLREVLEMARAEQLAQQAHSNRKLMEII
Protocol: (§1) Streptavidin (Thermo, Cat: 21125) was diluted in PBS to a concentration of 2 μg/ml. 100 μl of diluted streptavidin was added per well to ELISA microplates, and the plates were incubated overnight at 4° C. […] 100 μL of 3,3′,5,5′-tetramethylbenzidine (TMB) substrate (Biopanda, Cat: TMB-S-003) was added, and the plates were incubated at room temperature for 15 minutes. 100 μL of ELISA stopping solution (Solarbio, Cat #: C1058) was added to terminate the reaction, and the optical density at 450 nm (OD450 nm) was determined by an ELISA plate reader (Molecular Devices, Spectra max 384 plus).

CRH (NT-Biotin) [2] = biological target: T2, CRH (NT-Biotin) (human and mouse, not fully specified; biotin at the N-terminus); experiment: ELISA on streptavidin-captured CRH (NT biotin), OD450
T2 construct: also called Biotin-CRH; N-terminally biotinylated corticotropin-releasing hormone
T2 peptide: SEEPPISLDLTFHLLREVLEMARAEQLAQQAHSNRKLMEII
Protocol: as §1

CRH (NT-Biotin) [3] = biological target: T2, CRH (NT-Biotin); experiment: as above
Protocol: as §1

CRH (CT-Biotin) [4] = biological target: T1, CRH (CT-Biotin); experiment: ELISA on streptavidin-captured CRH (CT biotin), OD450
Protocol: as §1

CRH (NT-Biotin) [5] = biological target: T2, CRH (NT-Biotin); experiment: ELISA, N-terminally biotinylated CRH on streptavidin-coated plate
Protocol: as §1

CRH (CT-Biotin) [6] = biological target: T1, CRH (CT-Biotin); experiment: ELISA, C-terminally biotinylated CRH on streptavidin-coated plate
Protocol: as §1

[7] = biological target: T3, corticotropin-releasing hormone (CRH) peptide (human and mouse, not fully specified); experiment: cell-based or functional assay
T3 peptide: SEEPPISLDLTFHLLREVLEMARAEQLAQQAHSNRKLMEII

N-Terminal CRH = biological target: T4, N-Terminal CRH (human and mouse, C-terminal K-Biotin); experiment: ELISA, biotin peptide on streptavidin plate
T4 construct: also called N-Ter-CRH (CT-Bion)
T4 peptide: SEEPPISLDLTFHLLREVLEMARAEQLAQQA
Summary of the method: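 Read-out is absorbance at 450 nm after a stopped TMB reaction of 15 minutes at room temperature. Wells carried streptavidin, coated from a 2 μg/ml PBS solution overnight at 4° C.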

human UCN3 peptide = biological target: T5, human UCN3 peptide (human, UniProt Q969E3 120-157, not fully specified; biotin at N- or C-terminus in the ELISA); experiment: ELISA on streptavidin-captured hUCN3 (NT biotin) and hUCN3 (CT biotin), mAb at 100 nM and 10 nM, OD450
T5 construct: also called hUCN3; hUCN3 (NT Biotin)
T5 peptide (looked up): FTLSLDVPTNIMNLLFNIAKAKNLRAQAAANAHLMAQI
Protocol: (§2) Streptavidin (Thermo, Cat: 21125) was diluted in PBS with a concentration of 2 μg/mL. 100 μL of diluted streptavidin was added per well to ELISA microplates, and the plates were incubated overnight at 4° C. Plates were blocked with ELISA blocking solution (containing 2% w/v BSA, 0.05% (v/v) Tween-20, pH 7.4 PBS buffer) at 37° C. for 1 hour, and then incubated with either 1 μg/mL hUCN1 (NT Biotin), hUCN1 (CT Biotin), hUCN2 (NT Biotin), hUCN2 (CT Biotin), hUCN3 (NT Biotin), or hUCN3 (CT Biotin) for 1 hour at 37° C. […] 100 μl of TMB Substrate (Biopanda, Cat: TMB-S-003) was added, and the plates were incubated at room temperature for 15 minutes. 100 μL of ELISA stopping solution (Solarbio, Cat #: C1058) was then added to terminate the reaction, and the OD450 nm was determined by an ELISA plate reader (Molecular Devices, Spectra max 384 plus).

biotinylated CRH = biological target: T6, biotinylated CRH (human and mouse, not fully specified; biotinylated, position not stated); experiment: Octet BLI, biotinylated CRH on SA sensor
T6 construct: also called Biotin-CRH; biotin-labeled CRH
T6 peptide: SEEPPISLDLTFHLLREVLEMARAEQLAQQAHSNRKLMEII

hUCN1 (NT Biotin) = biological target: T7, hUCN1 (NT Biotin) (human, UniProt P55089 83-122, biotin at the N-terminus); experiment: ELISA on streptavidin-captured hUCN1 (NT biotin), OD450
T7 construct: also called human UCN1 (NT biotin)
T7 peptide (looked up): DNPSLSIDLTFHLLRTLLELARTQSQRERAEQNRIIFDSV
Protocol: as §1

CRH (NT Biotin) = biological target: T8, CRH (NT Biotin) (human and mouse, not fully specified; biotin at the N-terminus); experiment: ELISA on streptavidin-captured CRH (NT biotin), OD450
T8 peptide: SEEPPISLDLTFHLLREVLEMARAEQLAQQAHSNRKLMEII
Protocol: as §1

CRH (CT Biotin) = biological target: T9, CRH (CT Biotin) (human and mouse, C-terminal K-Biotin); experiment: ELISA on streptavidin-captured CRH (CT biotin), OD450
T9 construct: also called Peptide 4 (CRH-Biotin)
T9 peptide: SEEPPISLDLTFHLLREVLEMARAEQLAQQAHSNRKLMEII
Protocol: as §1

human UCN2 peptide = biological target: T10, human UCN2 peptide (human, UniProt Q96RP3 72-109, limits assumed, not fully specified; biotin at N- or C-terminus in the ELISA); experiment: ELISA on streptavidin-captured hUCN2 (NT biotin) and hUCN2 (CT biotin), mAb at 100 nM and 10 nM, OD450
T10 construct: also called hUCN2; hUCN2 (NT Biotin)
T10 peptide (looked up): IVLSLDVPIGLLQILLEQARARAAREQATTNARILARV
Protocol: as §2

Binder | EC50 (read off the curve) (CRH (CT-Biotin) [1]) | EC50 (read off the curve) (CRH (NT-Biotin) [2]) | EC50 (read off the curve) (CRH (NT-Biotin) [3]) | EC50 (read off the curve) (CRH (CT-Biotin) [4]) | EC50 (CRH (NT-Biotin) [5]) | EC50 (CRH (CT-Biotin) [6]) | hCRHR1 Reporter IC50 [7] | EC50 (N-Terminal CRH) | binding result (human UCN3 peptide) | Kd (biotinylated CRH) | koff (biotinylated CRH) | kon (biotinylated CRH) | EC50 (read off the curve) (hUCN1 (NT Biotin)) | EC50 (read off the curve) (CRH (NT Biotin)) | EC50 (read off the curve) (CRH (CT Biotin)) | binding result (human UCN2 peptide)
PR004290 (antibody, human IgG1, kappa, V domains shown, Expressed recombinantly with human IgG1 wildtype Fc; also called Hybridoma Clone 28b3; Series 1 mAb) VH: EVQLVESGGVLVQPGGSLRLSCAASGFTFSSYWMTWVRQAPGKGLEWVANIKQDGSEKYYVDSVKGRFTISRDNAKNSLFLQMNSLRAEDTAVYYCARTLIFDYWGQGTLVTVSS VL: DIVMTQSPLSLPVTPGEPASISCRSSQSLLHSTGYNSLEWYLQKPGQSPQLLIYLGSNRASGVPDRFSGSGSGTDFTLKISRVEAEDVGIYYCMQTLQTPITFGQGTRLEIKR | ~0.01 nM | ~0.05 nM | ~0.01 nM | ~0.03 nM | 0.029 nM | 0.032 nM | 3.69 nM |  |  |  |  |  |  |  |  | 
PR302309-18 (antibody, human IgG1, kappa, V domains shown, Humanized variant of PR302309) VH: QVQLVQSGAEVKKPGASVKVSCKASGYTFTNYGMNWVRQAPGQRLEWMGWINTYTGEPIYTDDFKGRVTITRDTSASTAYMELSSLRSEDTAVYYCARSTMITTGGVFAYWGQGTLVTVSS VL: DVVMTQSPLSLPVTLGQPASISCRSSQTIVHSDGNTYLEWYQQRPGQSPRLLIYKVSNRFSGVPDRFSGSGSGTDFTLKISRVEAEDLGVYYCFQGSHVPWTFGGGTKVEIKR |  |  |  |  |  |  |  | 0.028 nM | no binding (tested: 100 nM) | < 0.001 nM | < 1e-07 s⁻¹ | 126000 M⁻¹ s⁻¹ | ~0.1 nM | ~0.03 nM | ~0.03 nM | no binding (tested: 100 nM)
